Measured values reported in patent US12624112 (MABWELL SHANGHAI BIOSCIENCE, dated 2026).
One block for each molecule: values may come before it.

Assays:
[1] = molecular target: Human ST2-fc (human) (UniProt Q01638); experiment: competition ELISA, coated ST2-fc, competitor IL33-his
[2] = molecular target: Human ST2-fc (human) (UniProt Q01638); experiment: competition ELISA: human ST2-fc coated, antibody titrated in a mixture with human IL33-his (blocked ligand), bound IL33-his detected with an anti-His secondary antibody, OD450-OD650 [continued), 9-5]
[3] = molecular target: Human ST2-fc (human) (UniProt Q01638); experiment: competition ELISA: human ST2-fc coated, antibody titrated in a mixture with human IL33-his (blocked ligand), bound IL33-his detected with an anti-His secondary antibody, OD450-OD650 [continued), 9-7]
[4] = molecular target: T1, Human ST2-his (human, UniProt Q01638-2 19-328, limits assumed); experiment: SPR Biacore X100, ratio of kd at pH 5.5 to kd at pH 7.4
T1 construct: Expressed in CHO-K1; The printed range starts at Met1; also called human ST2 fused with a 6-histidine tag at the C-terminus
T1 sequence: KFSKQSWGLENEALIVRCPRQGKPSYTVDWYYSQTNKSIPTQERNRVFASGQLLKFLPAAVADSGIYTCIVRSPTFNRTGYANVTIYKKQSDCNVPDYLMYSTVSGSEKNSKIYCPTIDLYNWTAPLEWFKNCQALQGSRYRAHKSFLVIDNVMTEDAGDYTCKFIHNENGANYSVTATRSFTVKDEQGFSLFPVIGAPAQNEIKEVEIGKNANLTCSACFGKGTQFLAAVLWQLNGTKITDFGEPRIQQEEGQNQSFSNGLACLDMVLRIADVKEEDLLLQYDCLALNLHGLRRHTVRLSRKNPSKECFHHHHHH
Protocol: (§1) The experiment on the interaction between the anti-human ST2 antibodies and human ST2-his was performed using Biacore X100.
(§2) Each anti-human ST2 antibody was diluted to 2 µg/mL and captured on the surface of a protein A chip for a capture time of 60 s. Following the antibody capture, a solution of human ST2-his (2-fold gradient dilution from a starting concentration of 20 nM, to obtain 6 concentrations in total) was injected. Association was monitored for 180 s and dissociation was monitored for 700 s, and the sensor surface was regenerated by injecting a solution of glycine at pH 2.0. Kinetic data were analyzed using a simple 1:1 binding model.

[5] = molecular target: T2, ST2 on the effector cells (KU812, KU812/NF-κB-1#, HUVEC, HMC-1) (human, UniProt Q01638 19-556); experiment: cell-based or functional assay
T2 sequence (looked up): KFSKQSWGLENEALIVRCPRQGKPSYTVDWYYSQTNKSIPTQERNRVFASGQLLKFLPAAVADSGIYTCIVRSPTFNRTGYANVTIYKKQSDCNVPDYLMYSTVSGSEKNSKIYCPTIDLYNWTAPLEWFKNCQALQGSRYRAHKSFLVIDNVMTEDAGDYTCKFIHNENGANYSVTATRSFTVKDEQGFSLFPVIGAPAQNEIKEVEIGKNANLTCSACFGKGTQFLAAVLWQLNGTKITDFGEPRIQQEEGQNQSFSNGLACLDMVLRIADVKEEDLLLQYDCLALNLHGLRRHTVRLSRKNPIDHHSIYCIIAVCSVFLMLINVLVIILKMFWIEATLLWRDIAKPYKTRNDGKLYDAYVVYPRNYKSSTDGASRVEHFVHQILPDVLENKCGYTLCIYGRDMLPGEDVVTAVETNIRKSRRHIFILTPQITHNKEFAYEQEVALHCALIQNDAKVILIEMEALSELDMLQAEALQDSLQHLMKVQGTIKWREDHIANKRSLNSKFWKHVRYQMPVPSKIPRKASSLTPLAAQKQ

[6] = molecular target: T1, Human ST2-his; experiment: SPR Biacore X100, antibody captured on protein A chip, human ST2-his injected, dissociation at pH 5.5
Protocol: as §1, §2

[7] = molecular target: T1, Human ST2-his; experiment: SPR Biacore X100, antibody captured on protein A chip, human ST2-his injected, pH 7.4
In short: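 Antibody (2 µg/mL) captured 60 s on protein A; human ST2-his injected at six 2-fold dilutions from 20 nM, association 180 s, dissociation 700 s. Kinetics fitted to 1:1 binding model; glycine pH 2.0 regeneration.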

[8] = molecular target: Human ST2-fc (human) (UniProt Q01638); experiment: competition ELISA: human ST2-fc coated, antibody titrated in a mixture with human IL33-his (blocked ligand), bound IL33-his detected with an anti-His secondary antibody, OD450-OD650 [continued), 9-4]

Maximum inhibition rate [1]: 92.5% | IC50 (read off the curve) [2]: 1 µg/mL | IC50 (read off the curve) [3]: 0.9 µg/mL
Molecule: Control antibody CNTO7160

IC50 [1]: 0.402 µg/mL | Maximum inhibition rate [1]: 86% | Relative activity compared with CNTO7160 [1]: 219% | kd ratio of pH 5.5/pH 7.4 [4]: 38.4 | IC50, inhibition of KU812-IL5 production promoted by IL-33 (human IL33-his) [5]: 0.0948 µg/mL | Maximum inhibition rate, KU812-IL5 production by IL-33 [5]: 97.9% | Relative activity compared with CNTO7160, KU812-IL5 production by IL-33 [5]: 107% | Kd [6]: 2.67 nM | koff [6]: 0.0269 s⁻¹ | kon [6]: 1.01e+07 M⁻¹ s⁻¹ | Kd [7]: 0.515 nM | koff [7]: 0.000702 s⁻¹ | kon [7]: 1.36e+06 M⁻¹ s⁻¹
B1: 5888-379-H2L2 (antibody, human IgG4 S228P, kappa, V domains shown)
VH: QVQLVQSGAEVKKPGASVKVSCKASGYTFINYGMNWVRQAPGQRLEWMGWINTYIGEPTYGDNFKGRVTITRDTSASTAYMELSSLRSEDTAVYYCAREGDAFAYWGQGTLVTVSS
VL: DIVMTQSPDSLAVSLGERATINCKSSQSLLYSGNQNNYLAWYQQKPGQPPKLLIYGASTRESGVPDRFSGSGSGTDFTLTISSLQAEDVAVYYCQNDHSYPYTFGGGTKVEIKR
notes: Humanized antibody

IC50 (read off the curve) [8]: 3 µg/mL
B2: 5888-153-H2L0 (antibody, human IgG4 S228P, kappa, V domains shown)
VH: QVQLVQSGAEVKKPGASVKVSCKASGYTFTDYELHWVRQAPGQGLEWMGTIDPETGDTVYNQKFKARVTMTADKSTSTAYMELSSLRSEDTAVYYCTRAFYNDYDEGFAYWGQGTLVTVSS
VL: EIVLTQSPATLSLSPGERATLSCSVSSSVSYMHWYQQKPGQAPRLLIYDTSKLASGIPARFSGSGSGTDFTLTISSLEPEDFAVYYCQQWNSSPLTFGGGTKVEIKR
